# Reference: paper PMC4948116
# Key:
# Test in all cases: SPR
# [1] = biological target: Human recombinant CD16B (human) (UniProt O75015)
# [2] = biological target: Human recombinant CD16A-158F (human) (UniProt P08637)
# [3] = biological target: Human recombinant CD16A-158V (human)
# [4] = biological target: Human recombinant CD32B (human) (UniProt P31994)
# CD32A-131R (human) = biological target: CD32A-131R (human)
# CD32A-131H (human) = CD32A-131H (human) (UniProt P12318)
# UniProt P12318, sequence (P12318 34-317): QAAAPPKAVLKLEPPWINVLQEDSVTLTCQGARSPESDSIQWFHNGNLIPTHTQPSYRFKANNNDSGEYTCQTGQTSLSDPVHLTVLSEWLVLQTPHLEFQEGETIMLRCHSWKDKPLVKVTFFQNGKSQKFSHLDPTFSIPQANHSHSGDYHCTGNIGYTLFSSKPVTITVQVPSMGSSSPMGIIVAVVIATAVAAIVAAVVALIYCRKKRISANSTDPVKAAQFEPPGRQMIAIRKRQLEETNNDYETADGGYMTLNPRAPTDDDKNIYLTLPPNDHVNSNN
# UniProt P08637, sequence (P08637 17-208): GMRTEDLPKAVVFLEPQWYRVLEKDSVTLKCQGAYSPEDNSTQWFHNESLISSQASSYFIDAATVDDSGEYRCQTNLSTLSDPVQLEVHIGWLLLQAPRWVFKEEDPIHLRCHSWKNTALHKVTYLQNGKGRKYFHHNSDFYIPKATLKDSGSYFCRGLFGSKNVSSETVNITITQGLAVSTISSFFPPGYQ
# UniProt P31994, sequence (P31994 43-217): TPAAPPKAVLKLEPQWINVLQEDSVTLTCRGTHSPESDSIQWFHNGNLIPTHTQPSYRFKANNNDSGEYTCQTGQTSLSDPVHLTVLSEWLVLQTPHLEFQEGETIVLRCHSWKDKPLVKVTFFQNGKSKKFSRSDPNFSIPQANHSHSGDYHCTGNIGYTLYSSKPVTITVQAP
# UniProt O75015, sequence (O75015 17-200): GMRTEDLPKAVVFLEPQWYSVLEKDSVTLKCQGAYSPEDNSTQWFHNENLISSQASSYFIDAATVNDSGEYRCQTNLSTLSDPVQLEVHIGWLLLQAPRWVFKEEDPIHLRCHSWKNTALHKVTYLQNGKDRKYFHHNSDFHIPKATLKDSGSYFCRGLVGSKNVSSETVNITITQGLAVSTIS
Substance,Kd [1],Kd [2],Kd [3],"ka1 (two-state reaction, first step) [3]","kd1 (two-state reaction, first step) [3]","kd2 (two-state reaction, second step) [3]",Kd [4],Kd (CD32A-131R (human)),Kd (CD32A-131H (human)),affinity relative to hu3F8-IgG1 on CD16A(158F) [2]
hu3F8-IgG1 (antibody),2.03 µM,2.09 µM,0.726 µM,134000 M⁻¹ s⁻¹,0.212 s⁻¹,0.00897 s⁻¹,2.4 µM,0.786 µM,0.541 µM,
hu3F8-IgG1-DEL (antibody),,,,,,,,,,16 fold
